Reference: patent US8604172B2, “Humanized antibody compositions and methods for binding lysophosphatidic acid” (Lpath, Inc., priority 2009, dated 2013)

Legend:
[1] = Safety, 7 day intravenous injection; type: in vivo, C57BL/6N mice; conditions: for triglycerides / liver weights: mean±SD; for triglycerides: in mg/dL (unit assumed); for liver weights: in g (unit assumed)
Excerpt: Objective. This study assessed the safety of Lpathomab following intravenous injection of the antibody. C57BL/6N mice received Lpathomab (LT3000) for 7 consecutive days followed by a 7 day recovery period for selected animals of each treatment (recovery groups). Blood samples were collected and processed for multiple study parameters including classical hematology, coagulation time and clinical chemistry. Selected organs were weighed and compared with vehicle only controls.
Study design. Once a day, single iv bolus injections of Lpathomab or vehicle control were given at the following doses: 0, 30, 60, 120, and 240 mg/kg. […] For each animal, necropsy consisted of an external examination, including identification of all clinically recorded lesions, as well as a detailed internal examination.

[2] = test system: renal cell carcinoma (Caki-1) cells; assay: Cell monolayer scratch assay, Caki-1; type: cell-based, human; conditions: mAb 10 μg/ml
Description: An important characteristic of metastatic cancers is that the tumor cells escape contact inhibition and migrate away from their tissue of origin. […] Accordingly, we tested the ability of anti-LPA mAb to block LPA-dependent cell migration in several human cancer cell lines by using the cell monolayer scratch assay. Cells were seeded in 96 well plates and grown to confluence. After 24 h of starvation, the center of the wells was scratched with a pipette tip. In this art-accepted “scratch assay,” the cells respond to the scratch wound in the cell monolayer in a stereotypical fashion by migrating toward the scratch and close the wound. Progression of migration and wound closure are monitored by digital photography at 10× magnification at desired timepoints. Cells were not treated (NT), treated with LPA ([…]) with or w/o mAb B7 (10 μg/ml) or an isotype matching non-specific antibody (NS) (10 μg/ml). In untreated cells, a large gap remains between the monolayer margins following the scratch. LPA-treated cells in contrast, have only a small gap remaining at the same timepoint, and a few cells are making contact across the gap.

[3] = Competition ELISA specificity, competitor S1P; type: binding; conditions: maximum inhibition, n = 3
Description: The specificity of the anti-LPA mAbs was assessed for their binding to LPA related biolipids such as distearoyl-phosphatidic acid, lysophosphatidylcholine, S1P, ceramide and ceramide-1-phosphate.

[4] = BiaCore surface plasmon resonance and direct binding ELISA of LT3000
Excerpt: The murine antibody is a full-length IgG1k isotype antibody composed of two identical light chains and two identical heavy chains with a total molecular weight of 155.5 kDa.

[5] = 30-240 mg/kg iv daily x 7 vs control

B1: LT3000: Murine anti-LPA monoclonal antibody clone B7, IgG1k, renamed Lpathomab, also known as LT3000; hybridoma 504B7.1, ATCC PTA-8420 (antibody, V domains shown)
VH: QVQLQQSGAELVRPGTSVKVSCKASGYGFINYLIEWIKQRPGQGLEWIGLINPGSDYTNYNENFKGKATLTADKSSSTAYMHLSSLTSEDSAVYFCARRFGYYGSGNYFDYWGQGTTLTVSS
VL: DVVMTQTPLSLPVSLGDQASISCTSGQSLVHINGNTYLHWYLQKPGQSPKLLIYKVSNLFSGVPDRFSGSGSGTDFTLKISRVEAEDLGVYFCSQSTHFPFTFGTGTKLEIK
Q: Which “weights of brains, hearts, lungs, pituitary glands, ovaries, spleens, testes, thymus glands, thyroid or uterus” value ([1]; 30-240 mg/kg iv daily x 7) does the source give for B1 here?
A: The value was “No changes were observed”.

Q: What about the “glucose, cholesterol, ALT or other CBC parameters” value [1, 5] of the same molecule?
A: Its value is “no statistically significant reductions”.

Q: What about the hematology parameters [1, 5] of the same molecule?
A: The hematology parameters was “no significant differences”.

Q: And the triglycerides ([1]; female mice, 120 mg/kg iv daily x 7, vehicle 89±17)?
A: Its triglycerides is 36±8.

Q: And the triglycerides ([1]; female mice, 240 mg/kg iv daily x 7, vehicle 89±17)?
A: The triglycerides was 46±18.

Q: What about the liver weights ([1]; female mice, 240 mg/kg, vehicle 1.2±0.27) of the same molecule?
A: The liver weights was 0.89±0.26.

Q: And the liver weights ([1]; male mice, 60 mg/kg, vehicle 1.28±0.06)?
A: The liver weights was 1.03±0.07.

Q: What about the liver weights ([1]; male mice, 120 mg/kg, vehicle 1.28±0.06) of the same molecule?
A: The liver weights was 1.08±0.11.

Q: And the triglycerides ([1]; male mice, 240 mg/kg iv daily x 7, vehicle 133±24)?
A: The triglycerides was 50±8.

Q: What about the liver weights ([1]; male mice, 240 mg/kg, vehicle 1.28±0.06) of the same molecule?
A: Its liver weights is 1.11±0.11.

Q: What about the LPA-stimulated migration [2] of the same molecule?
A: The LPA-stimulated migration was “inhibitory effect”.

Q: What about the “MI (%), S1P” value [3] of the same molecule?
A: The value was 2.7%.

Q: And the Kd [4]?
A: The Kd was 0.001 to 0.05 nM.
